In PMC3506534, “LL-37 Induces Polymerization and Bundling of Actin and Affects Actin Structure” (PLoS ONE, 2012) one finds disappearance of Mg-F-actin bundles (bundled by 9 µM LL-37) and depolymerization of the filaments after 6 µM DNase1 (low and high speed sedimentation) data, which are given here for one substance.

The target of this test is rabbit skeletal muscle α-actin (rabbit) (UniProt P68135).

Chain of DNase1 (P00639 23-282): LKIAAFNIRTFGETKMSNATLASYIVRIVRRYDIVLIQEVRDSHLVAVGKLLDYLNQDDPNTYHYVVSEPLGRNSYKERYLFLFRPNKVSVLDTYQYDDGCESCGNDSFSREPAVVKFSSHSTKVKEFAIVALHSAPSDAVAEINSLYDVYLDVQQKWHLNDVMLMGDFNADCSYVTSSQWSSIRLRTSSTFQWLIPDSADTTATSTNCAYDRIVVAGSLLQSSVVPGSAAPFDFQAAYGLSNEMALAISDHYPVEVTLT

The substance “DNase1 (from UniProt P00639 23-282) (enzyme)” returned a disappearance of Mg-F-actin bundles (bundled by 9 µM LL-37) and depolymerization of the filaments after 6 µM DNase1 (low and high speed sedimentation) of 100%.
